Assay [1] concerns the target ACE-2-Fc fusion protein (human) (UniProt Q9BYF1). Put plainly: BLI. Background: Biolayer interferometry detects binding as a change in optical thickness at a sensor tip.
For assay [2], the target named is SARS-CoV-2 spike wt (in-house) (SARS-CoV-2) (UniProt P0DTC2). Put plainly: ELISA. (ELISA stands for enzyme-linked immunosorbent assay.)

One may read the Kd as the free concentration of one partner at which half of the binding sites on the other are occupied at equilibrium, for simple one-to-one binding. A high value points to a looser complex. As usually defined, the koff is the rate constant with which the complex falls apart. A lower koff goes with slow dissociation. The term kon denotes a measure of how fast the partners come together. The low end stands for slower complex formation, the high end for faster complex formation.

UniProt Q9BYF1, sequence (Q9BYF1 18-740): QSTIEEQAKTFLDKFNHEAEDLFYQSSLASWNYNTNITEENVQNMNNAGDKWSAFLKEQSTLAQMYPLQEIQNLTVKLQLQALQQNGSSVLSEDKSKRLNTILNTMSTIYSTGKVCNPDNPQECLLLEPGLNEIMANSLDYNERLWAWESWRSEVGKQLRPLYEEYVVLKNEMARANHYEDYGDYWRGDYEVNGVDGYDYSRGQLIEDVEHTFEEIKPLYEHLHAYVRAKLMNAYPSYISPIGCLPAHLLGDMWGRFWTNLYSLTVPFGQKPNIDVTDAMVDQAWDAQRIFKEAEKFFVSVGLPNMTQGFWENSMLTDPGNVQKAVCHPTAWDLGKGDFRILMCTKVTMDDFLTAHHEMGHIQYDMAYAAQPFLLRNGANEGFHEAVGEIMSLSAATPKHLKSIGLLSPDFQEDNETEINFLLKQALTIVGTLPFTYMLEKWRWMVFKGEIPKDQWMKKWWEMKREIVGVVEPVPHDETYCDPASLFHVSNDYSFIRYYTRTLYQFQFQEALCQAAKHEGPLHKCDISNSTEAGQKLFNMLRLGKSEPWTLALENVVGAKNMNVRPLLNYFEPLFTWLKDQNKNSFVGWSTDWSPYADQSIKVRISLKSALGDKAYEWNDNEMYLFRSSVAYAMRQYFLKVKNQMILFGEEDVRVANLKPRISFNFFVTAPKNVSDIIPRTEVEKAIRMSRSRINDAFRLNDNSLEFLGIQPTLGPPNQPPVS

In assay [1], “SARS-CoV-2 RBD Omicron BA.2 (domain or fragment)” displayed a Kd of 4.47 nM, a fold improvement of kdis compared to the wt of 1.76 fold, a koff of 0.0032 s⁻¹ and a kon of 716000 M⁻¹ s⁻¹.

For SARS-CoV-2 RBD wt (domain or fragment), the Kd in assay [1] stood at 23.4 nM.

The substance “native MBL from sera (from UniProt P11226 21-248) (natural protein)” displayed a fold increase of binding after total IgG depletion of vaccinee plasma in assay [2] of 2.6 fold.

For the origin of these results see publication PMC11666439.
